Laboratory results taken from publication PMC12455474, “Single‐Molecule Protein Profiling Using Nanopores and Dimeric Aptamer‐Modified DNA Carriers”.

How the values were obtained:
human alpha-thrombin = human alpha-thrombin (human, UniProt P00734;P00734 328-363;364-622); assay: single-molecule nanopore (carrier dimerization, biphasic Hill fit); apparent sandwich Kd; 100 pM of each carrier; hook effect at high thrombin; Carriers (200 pM total) incubated with protein at 37 °C for 2 h; nanopore measurement in 100 mM KCl, 10 mM Tris-EDTA pH 8.0, -300 mV
VEGF-165 = VEGF-165 (human, UniProt P15692-4 27-191); assay: single-molecule nanopore (carrier dimerization, biphasic Hill fit); apparent sandwich Kd; 200 pM carrier; Carriers (200 pM total) incubated with protein at 37 °C for 2 h; nanopore measurement in 100 mM KCl, 10 mM Tris-EDTA pH 8.0, -300 mV; details: protein: recombinant; chain copies: 2; 2 identical carriers per protein dimer; first 12 nt pair with carrier overhang
Sequence of VEGF-165 (P15692 other isoform, or with tags, fused parts or gaps): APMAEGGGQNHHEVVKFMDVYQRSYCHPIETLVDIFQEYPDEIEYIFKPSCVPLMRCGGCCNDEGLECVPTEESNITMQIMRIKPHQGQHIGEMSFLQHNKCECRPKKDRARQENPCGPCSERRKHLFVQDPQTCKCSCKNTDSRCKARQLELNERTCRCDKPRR

PDGF-BB = PDGF-BB (human, UniProt P01127 82-190); assay: as above; details: protein: recombinant; chain copies: 2; 2 identical carriers per protein dimer; first 12 nt pair with carrier overhang
Sequence of PDGF-BB (P01127 82-190): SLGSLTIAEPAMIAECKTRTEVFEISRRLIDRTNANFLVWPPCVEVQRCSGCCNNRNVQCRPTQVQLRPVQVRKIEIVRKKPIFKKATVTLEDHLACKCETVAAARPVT

B1: HD1 carrier + HD22 carrier (thrombin probes 1 and 2) (structured_DNA)
DNA 1: GGGCGGCGACCTTTTTTTGGTTGGTGTGGTTGG
DNA 2: GGGCGGCGACCTTTTTTTAGTCCGTGGTAGGGCAGGTTGGGGTGACT
modifications: 5' phosphate on probes, ligated to carrier
Human alpha-thrombin
  Kd: ~9.1 pM

B2: VEGF probe (V7t1) carrier (structured_DNA)
DNA: GGGCGGCGACCTTTTTTTTGTGGGGGTGGACGGGCCGGGTAGA
modifications: 5' phosphate, ligated to carrier
VEGF-165
  Kd: ~0.3 pM

B3: PDGF probe carrier (structured_DNA)
DNA: GGGCGGCGACCTTTTTTTCACAGGCTACGGCACGTAGAGCATCACCATGATCCTGTG
modifications: 5' phosphate, ligated to carrier
PDGF-BB
  Kd: ~1.8 pM
